Assay [1] has as its target T1, Ubl45^ΔC (tailless Ubl45) (UniProt Q93009 890-1082).
T1 construct: USP7 Ubl45 without the C-terminal tail: stop codon introduced at residue 1083; start 890 as told for Ubl45; also called tailless construct; source: E. coli BL21, purified (Glutathione Sepharose, 3C cleavage, anion exchange, gel filtration)
The assay can be described thus: SPR; GST-USP7CD captured by anti-GST antibody on CM5 chip, Ubl45 or Ubl45ΔC flowed over; Biacore T200, 25 °C; 20 mM HEPES pH 7.5, 100 mM NaCl, 1 mM DTT, 1 mM EDTA, 0.05% Tween-20, 1 mg/mL BSA, 1 mg/mL dextran; equilibrium fit 1:1, extrapolated. The note with it: both partners purified.

Assay [2] concerns the target T2, USP7 Ubl45 (last two Ubl domains with the activating C-terminal tail) (UniProt Q93009 890-1102).
T2 construct: USP7 Ubl domains 4 and 5 with the C-terminal tail, residues 890-1102 (25 kDa); source: E. coli BL21, purified (Glutathione Sepharose, 3C cleavage, anion exchange, gel filtration); 15N-labelled in M9 minimal medium for NMR
The description is as above. The note with it: both partners purified.

T2 sequence (Q93009 890-1102): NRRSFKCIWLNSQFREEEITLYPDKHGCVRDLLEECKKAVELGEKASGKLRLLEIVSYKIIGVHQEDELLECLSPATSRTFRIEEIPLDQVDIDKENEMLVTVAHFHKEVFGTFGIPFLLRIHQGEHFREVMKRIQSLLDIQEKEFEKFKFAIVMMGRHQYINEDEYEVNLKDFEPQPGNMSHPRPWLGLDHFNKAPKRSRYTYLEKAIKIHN
T1 sequence (Q93009 890-1082, stated change not applied): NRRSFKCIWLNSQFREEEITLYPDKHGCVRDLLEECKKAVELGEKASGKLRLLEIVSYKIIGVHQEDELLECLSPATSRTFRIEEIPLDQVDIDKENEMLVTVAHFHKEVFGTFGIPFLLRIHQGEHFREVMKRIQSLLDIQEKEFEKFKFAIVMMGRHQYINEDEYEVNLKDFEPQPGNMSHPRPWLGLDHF

B1: GST-USP7CD (domain or fragment)
chain: KKHTGYVGLKNQGATCYMNSLLQTLFFTNQLRKAVYMMPTEGDDSSKSVPLALQRVFYELQHSDKPVGTKKLTKSFGWETLDSFMQHDVQELCRVLLDNVENKMKGTCVEGTIPKLFRGKMVSYIQCKEVDYRSDRREDYYDIQLSIKGKKNIFESFVDYVAVEQLDGDNKYDAGEHGLQEAEKGVKFLTLPPVLHLQLMRFMYDPQTDQNIKINDRFEFPEQLPLDEFLQKTDPKDPANYILHAVLVHSGDNHGGHYVVYLNPKGDGKWCKFDDDVVSRCTKEEAIEHNYGGHDDDLSVRHCTNAYMLVYIRESKLSEVLQAVTDHDIPQQLVERLQEEKRIEAQKRKERQE
modifications: GST tag (used for chip immobilisation) left out; limits 208-560 are the usual USP7 CD construct limits, not printed in the text (consistent with the stated 42 kDa)
With B1, the Kd in assay [1] was 420 µM; in assay [2], around 280 µM.

As a reminder, the Kd is the concentration at which binding is half-saturated.
